According to PMC4289617:

target: WDR5Δ23 (WD repeat domain 5, residues 24–334) (human) (UniProt P61964); test: fluorescence polarisation

Substance | IC50 [µM] | Ki [µM]
Ac-2mer (Ac-3mer without Ala3) (peptide) | 125 | 27
CHO-3mer (CHO-ARA-NH2) (peptide) | 14.9 | 3.2
H2N-3mer (H2N-ARA-NH2) (peptide) | > 300 | > 50
H3-3mer (H2N-ART-NH2) (peptide) | 127 | 27.3
Δ1 (Ac-AR-(N-Me)A-NH2) (peptide) | > 300 | > 50
Δ2b (Ac-ARA-CONMe2) (peptide) | 30 | 6.5
Δ2c (Ac-ARA-COOCH3) (peptide) | 7.3 | 1.6

Substances with a lower IC50, results first:

IC50 [µM] | Ki [µM] | Substance
0.54 | 0.12 | Ac-3mer (Ac-ARA-NH2) (peptide)
0.08 | 0.02 | Ac-H3-3mer (Ac-ART-NH2) (peptide)
0.7 | 0.15 | Δ2a (Ac-ARA-CONHMe) (peptide)
